Measurements published in patent US20260242478A1 (published 2026).
Where no end group is shown, it is not given here.

Key:
[1] = target: T1, Anti-CD28 Fab (SEQ ID NOs: 696, 697) (biotinylated (site not given)); test: phage binding ELISA on captured anti-CD28 Fab; competitor: CD28 antigen added to the wells before the phage
[2] = target: T1, Anti-CD28 Fab (SEQ ID NOs: 696, 697); test: phage binding ELISA; biotinylated anti-CD28 Fab on neutravidin plate, clonal phage detected with anti-M13-HRP;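 note: crude clonal phage supernatants added briefly to wells preincubated in blocking buffer with or without CD28 antigen, then washed before detection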
Method: (§1) Clonal phage were harvested as crude supematants and screened via standard ELISAs. […] Prior to the addition of clonal phage, wells were incubated with blocking buffer and CD28 antigen or blocking buffer alone. Without washing or aspirating, clonal phage supematants were then added to the wells and incubated for a short time. Wells were then washed followed by detection of bound phage using a horse radish conjugated anti-M13 antibody. Clonal phage of interest were then sent for sequence analysis.

[3] = target: Anti-CD28 Fab (SEQ ID NOs: 696, 697); test: phage binding ELISA; Fab-coated wells pre-incubated with CD28 antigen as competitor, anti-M13 HRP detection;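 note: crude clonal phage supernatants added without washing after the CD28 pre-incubation, with wells given blocking buffer only (no CD28) as the reference, bound phage read after washing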
Target sequence in this assay (VH, as listed by the source, chain 1 of 2): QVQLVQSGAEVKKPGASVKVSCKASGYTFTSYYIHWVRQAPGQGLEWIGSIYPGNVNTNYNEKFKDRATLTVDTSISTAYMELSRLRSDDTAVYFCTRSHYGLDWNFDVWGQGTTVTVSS
Target sequence in this assay (VL, as listed by the source, chain 2 of 2): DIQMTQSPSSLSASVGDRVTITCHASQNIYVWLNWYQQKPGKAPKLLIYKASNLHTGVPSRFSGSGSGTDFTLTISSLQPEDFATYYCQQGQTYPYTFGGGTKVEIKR
Method: as §1

[4] = target: Anti-CD28 Fab (SEQ ID NOs: 696, 697); test: phage binding ELISA; biotinylated anti-CD28 Fab on neutravidin plate, clonal phage supernatant, anti-M13 HRP detection;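 note: wells pretreated with blocking buffer, either plus or minus CD28 antigen, then given crude phage supernatant briefly without washing in between, then washed before anti-M13 HRP readout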
Target sequence in this assay (VH, as listed by the source, chain 1 of 2): as the sequence (VH, as listed by the source, chain 1 of 2) above
Target sequence in this assay (VL, as listed by the source, chain 2 of 2): as the sequence (VL, as listed by the source, chain 2 of 2) above
Method: (§2) Clonal phage were harvested as crude supematants and screened via standard ELISAs. […] Prior to the addition of clonal phage, wells were incubated with blocking buffer and CD28 antigen or blocking buffer alone. Without washing or aspirating, clonal phage supematants were then added to the wells and incubated for a short time. Wells were then washed followed by detection of bound phage using a horse radish conjugated anti-M13 antibody.

[5] = target: T2, Anti-CD28 Fab (SEQ ID NOs: 696, 697); test: phage binding ELISA; clonal phage on plate-captured anti-CD28 Fab pre-incubated with CD28 antigen (competitor)
T2 construct: In the phage ELISA the Fab was biotinylated and captured on neutravidin coated plates
T2 sequence (VH, as listed by the source, chain 1 of 2): as the sequence (VH, as listed by the source, chain 1 of 2) above
T2 sequence (VL, as listed by the source, chain 2 of 2): as the sequence (VL, as listed by the source, chain 2 of 2) above
Method: as §1

[6] = target: T2, Anti-CD28 Fab (SEQ ID NOs: 696, 697); test: phage binding ELISA; clonal phage on plate-captured biotinylated anti-CD28 Fab
Method: as §2

[7] = target: Anti-CD28 Fab (SEQ ID NOs: 696, 697); test: phage binding ELISA; Fab-coated wells pre-incubated with CD28 antigen as competitor, anti-M13 HRP detection; remark: listed apart in the source;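 note: crude clonal phage supernatants added without washing after the CD28 pre-incubation, with wells given blocking buffer only (no CD28) as the reference, bound phage read after washing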
Target sequence in this assay (VH, as listed by the source, chain 1 of 2): as the sequence (VH, as listed by the source, chain 1 of 2) above
Target sequence in this assay (VL, as listed by the source, chain 2 of 2): as the sequence (VL, as listed by the source, chain 2 of 2) above
Method: as §1

[8] = target: Anti-CD28 Fab (SEQ ID NOs: 696, 697); test: phage binding ELISA; biotinylated anti-CD28 Fab on neutravidin plate, clonal phage supernatant, anti-M13 HRP detection; remark: listed apart in the source;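 note: wells pretreated with blocking buffer, either plus or minus CD28 antigen, then given crude phage supernatant briefly without washing in between, then washed before anti-M13 HRP readout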
Target sequence in this assay (VH, as listed by the source, chain 1 of 2): as the sequence (VH, as listed by the source, chain 1 of 2) above
Target sequence in this assay (VL, as listed by the source, chain 2 of 2): as the sequence (VL, as listed by the source, chain 2 of 2) above
Method: as §2

T1 sequence (VH, as listed by the source, chain 1 of 2): as the sequence (VH, as listed by the source, chain 1 of 2) above
T1 sequence (VL, as listed by the source, chain 2 of 2): as the sequence (VL, as listed by the source, chain 2 of 2) above

Row | Binder | Anti-CD28 Fab signal in the presence of CD28 [1] | Anti-CD28 Fab (SEQ ID NOs: 696, 697) signal [2] | Anti-CD28 Fab signal in the presence of CD28 [5] | Anti-CD28 Fab (SEQ ID NOs: 696, 697) signal [6] | also measured
1 | TCAAGATYEWPACL [Phage-1394] | 0.07 | 2.09 |  |  | 
2 | YCAAGATYPWPLCL [Phage-1399] | 0.08 | 2.08 |  |  | 
3 | TCAAGAHYSWPACF [Phage-1370 peptide (Peptide-92 library sequence, SEQ ID NO: 1666)] |  |  |  |  | Anti-CD28 Fab signal in the presence of CD28 [3]: 0.07; Anti-CD28 Fab (SEQ ID NOs: 696, 697) signal [4]: 2.25
4 | GCAAGATYPWPSCL [Phage-1404 (Peptide-92 library clone)] |  |  | 0.06 | 2.05 | 
5 | LCAAGFKYPWPLCL [Phage-1411 (Peptide-92 library clone)] |  |  | 0.07 | 2.02 | 
6 | TCAAGATYKWPACL [Phage-1405 (Peptide-92 library clone)] |  |  | 0.09 | 2.05 | 
7 | TCSAGASWAWPWCF [Phage-1408 (Peptide-92 library clone)] |  |  | 0.08 | 2.03 | 
8 | TCSEGATYTWPWCF [Phage-1401] | 0.06 | 2.05 |  |  | 
9 | TCAAGATYSWPMCF [Phage-1413 (Peptide-92 library clone)] |  |  | 0.07 | 2 | 
10 | RCAAGASYPWPPCL [Phage-1372 peptide (Peptide-92 library sequence, SEQ ID NO: 1668)] |  |  |  |  | Anti-CD28 Fab signal in the presence of CD28 [3]: 0.05; Anti-CD28 Fab (SEQ ID NOs: 696, 697) signal [4]: 2.25
11 | MCSAGAMYSWPLCL [Phage-1365 peptide (Peptide-92 library sequence, SEQ ID NO: 1661)] |  |  |  |  | Anti-CD28 Fab signal in the presence of CD28 [3]: 0.08; Anti-CD28 Fab (SEQ ID NOs: 696, 697) signal [4]: 2.29
12 | LCAAGASYPWPTCL [Phage-1414 (Peptide-92 library clone)] |  |  | 0.1 | 2 | 
13 | SCAAGAMWPWPVCV [Phage-1362 peptide (Peptide-92 library sequence, SEQ ID NO: 1658)] |  |  |  |  | Anti-CD28 Fab signal in the presence of CD28 [3]: 0.13; Anti-CD28 Fab (SEQ ID NOs: 696, 697) signal [4]: 2.29
14 | HCAAGAHYPWPACL [Phage-1415 (Peptide-92 library clone)] |  |  | 0.12 | 2 | 
15 | SCAAVFSYSWPMCF [Phage-1420] |  |  |  |  | Anti-CD28 Fab signal in the presence of CD28 [7]: 0.06; Anti-CD28 Fab (SEQ ID NOs: 696, 697) signal [8]: 1.99
16 | TCKAGATYLWPFCL [Phage-1373 peptide (Peptide-92 library sequence, SEQ ID NO: 1669)] |  |  |  |  | Anti-CD28 Fab signal in the presence of CD28 [3]: 0.08; Anti-CD28 Fab (SEQ ID NOs: 696, 697) signal [4]: 2.23
17 | WCKPGAPYKWPPCF [Phage-1389] | 0.07 | 2.14 |  |  | 
18 | TCAAVFSYGWPECF [Phage-1396] | 0.07 | 2.09 |  |  | 
19 | MCSAGAMYPWPTCL [Phage-1406 (Peptide-92 library clone)] |  |  | 0.08 | 2.04 | 
20 | TCAAGAMWHWPVCL [Phage-1409 (Peptide-92 library clone)] |  |  | 0.09 | 2.03 | 
21 | LCAAGATYPWPFCL [Phage-1366 peptide (Peptide-92 library sequence, SEQ ID NO: 1662)] |  |  |  |  | Anti-CD28 Fab signal in the presence of CD28 [3]: 0.07; Anti-CD28 Fab (SEQ ID NOs: 696, 697) signal [4]: 2.28
22 | TCAAGAHYLWPWCM [Phage-1402] | 0.08 | 2.05 |  |  | 
23 | MCAEFFNYPWPLCL (cysteine pairing not given here; also: fused to phage pIII protein) [Phage-1393] | 0.07 | 2.11 |  |  | 

Row | Binder | Anti-CD28 Fab signal in the presence of CD28 [1] | Anti-CD28 Fab (SEQ ID NOs: 696, 697) signal [2] | Anti-CD28 Fab signal in the presence of CD28 [5] | Anti-CD28 Fab (SEQ ID NOs: 696, 697) signal [6] | also measured
24 | TCAAGATYPWPSCL [Phage-1371 peptide (Peptide-92 library sequence, SEQ ID NO: 1667)] |  |  |  |  | Anti-CD28 Fab signal in the presence of CD28 [3]: 0.06; Anti-CD28 Fab (SEQ ID NOs: 696, 697) signal [4]: 2.25
25 | TCAAGATYAWPECL [Phage-1400] | 0.11 | 2.08 |  |  | 
26 | SCSAGAMYTWPTCL [Phage-1397] | 0.06 | 2.09 |  |  | 
27 | TCAAGAHYTWPECF [Phage-1419] |  |  |  |  | Anti-CD28 Fab signal in the presence of CD28 [7]: 0.07; Anti-CD28 Fab (SEQ ID NOs: 696, 697) signal [8]: 1.99
28 | QCAAGASYPWPMCL [Phage-1398] | 0.08 | 2.08 |  |  | 
29 | LCSAGAMYPWPTCL [Phage-1369 peptide (Peptide-92 library sequence, SEQ ID NO: 1665)] |  |  |  |  | Anti-CD28 Fab signal in the presence of CD28 [3]: 0.07; Anti-CD28 Fab (SEQ ID NOs: 696, 697) signal [4]: 2.25
30 | TCSAGAYYTWPYCF [Phage-1395] | 0.08 | 2.09 |  |  | 
31 | TCSAGASYPWPLCL [Phage-1363 peptide (Peptide-92 library sequence, SEQ ID NO: 1659)] |  |  |  |  | Anti-CD28 Fab signal in the presence of CD28 [3]: 0.08; Anti-CD28 Fab (SEQ ID NOs: 696, 697) signal [4]: 2.29
32 | TCAAGATYSWPWCF [Phage-1418] |  |  |  |  | Anti-CD28 Fab signal in the presence of CD28 [7]: 0.07; Anti-CD28 Fab (SEQ ID NOs: 696, 697) signal [8]: 1.99
33 | TCAAGAMYTWPLCF [Phage-1390] | 0.09 | 2.14 |  |  | 
34 | LCAAGATYAWPLCL [Phage-1392] | 0.07 | 2.13 |  |  | 
35 | MCAAGANYPWPQCL (cysteine pairing not given here; also: fused to phage pIII protein) [Phage-1367 peptide (Peptide-92 library sequence, SEQ ID NO: 1663)] |  |  |  |  | Anti-CD28 Fab signal in the presence of CD28 [3]: 0.08; Anti-CD28 Fab (SEQ ID NOs: 696, 697) signal [4]: 2.28
36 | TCSAGATWSWPMCL [Phage-1368 peptide (Peptide-92 library sequence, SEQ ID NO: 1664)] |  |  |  |  | Anti-CD28 Fab signal in the presence of CD28 [3]: 0.09; Anti-CD28 Fab (SEQ ID NOs: 696, 697) signal [4]: 2.26
37 | TCSAGFHYEWPRCL [Phage-1410 (Peptide-92 library clone)] |  |  | 0.05 | 2.02 | 
38 | MCAAGATYPWPACL (cysteine pairing not given here; also: fused to phage pIII protein) [Phage-1361 peptide (Peptide-92 library sequence, SEQ ID NO: 1657)] |  |  |  |  | Anti-CD28 Fab signal in the presence of CD28 [3]: 0.06; Anti-CD28 Fab (SEQ ID NOs: 696, 697) signal [4]: 2.3
39 | SCAAGATYSWPMCL [Phage-1421] |  |  |  |  | Anti-CD28 Fab signal in the presence of CD28 [7]: 0.09; Anti-CD28 Fab (SEQ ID NOs: 696, 697) signal [8]: 1.99
40 | SCKPGVANYWPWCL [Phage-1364 peptide (Peptide-92 library sequence, SEQ ID NO: 1660)] |  |  |  |  | Anti-CD28 Fab signal in the presence of CD28 [3]: 0.1; Anti-CD28 Fab (SEQ ID NOs: 696, 697) signal [4]: 2.29
41 | LCEEFADYPWPMCL [Phage-1412 (Peptide-92 library clone)] |  |  | 0.06 | 2.01 | 
42 | MCAAGATYPWPLCL (cysteine pairing not given here; also: fused to phage pIII protein) [Phage-1417] |  |  |  |  | Anti-CD28 Fab signal in the presence of CD28 [7]: 0.07; Anti-CD28 Fab (SEQ ID NOs: 696, 697) signal [8]: 1.99
43 | TCSAGATWTWPQCL [Phage-1391] | 0.08 | 2.14 |  |  | 
44 | TCSAGATYVWPQCF [Phage-1403 (Peptide-92 library clone)] |  |  | 0.07 | 2.05 | 
45 | TCAAGANYPWPYCL [Phage-1416 (Peptide-92 library clone)] |  |  | 0.14 | 1.99 | 
46 | TCAAGASYAWPWCL [Phage-1407 (Peptide-92 library clone)] |  |  | 0.08 | 2.03 | 
